Source: the nanobody polyreactivity screen of Harvey et al. (2022)

Assay: yeast display, Sf9 membrane polyspecificity reagent, FACS + sequencing; frameworks hold sequencing errors
How it was run: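 After 36–48 hours of galactose induction, yeast (Saccharomyces cerevisiae BJ5465) displaying a synthetic nanobody library were stained at 4 °C for 1 hour with 10% biotinylated, detergent-solubilized Sf9 membrane reagent. Streptavidin microbeads enriched the stained cells before FACS sorting into low and high (top ~1%) gates on anti-HA and streptavidin fluorescence. Each clone's polyreactivity label reflects its gate of origin.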

| Sequence | polyreactivity (PSR sort gate) |
| --- | --- |
| QVQLVESGGGLVQAGGSLRLSCDASGSIFRPNAMGWYRQPPGKERELVAAITWIAGGTYYADSVKGRFTISRDNAKNTVYLQMNSLKPEDTAVYYCAARWYFQTGVGRYYHYDYWGQGTQVTVSS | high polyreactivity |
| QVQLVESGGGLVQAGGSLRLSCDASGSIFSQYAMGWDRQAPGKEWELVAAITWSGGSTYYADSVMGRFTFSRDNAKNTVYLQMNSLKPEDTEVYYCAATGYYYTRSSTWYRYYYWGQGTQVTVSS | high polyreactivity |
| QVQLVESGGGLVQAGGSLRLSCDASGSIFSYYAMGWYRQAPGKERELVAAITYRGGSTFYADSVKGRFTLSRDNAKNTVYFQMNRLKPEDTAVYYCATRYYVDQRYQYKYDYWGQGTQVTVSS | high polyreactivity |
| QVQLVESGGGLVQAGGSLRLSCDASGSIFVLNAMGWYRQAPGKERELVAAISYSGGSTYYADSVKGRFTISRDNAKNTVYLQMNSLKPEDTAVYYCAADLVSYYGYSSEYEYWGQGTQVTVSS | high polyreactivity |
| QVQLVESGGGLVQAGGSLRLSCDASGSTFIYYTMGWYRQAPGKERELVAAINGGGGSTYYADSVKGRFTISRDNAKNTVYLQMNSLKPEDTAVYYCATDPWHRAWGYGWGYNYWGQGTQVTVSS | low polyreactivity |
| QVQLVESGGGLVQAGGSLRLSCDASGSTFPKYAMGWYRQAPGKEWELVASISARGGGTHYADSVKGRFTISRDNAKNTVYLQMNSLKPEDTAVYYCNDVAHRQAQGAWGPGTQVTVSS | low polyreactivity |
| QVQLVESGGGLVQAGGSLRLSCDDSGGIFQENAMGWYTQAPGKERELVATSTRSTGSTYYADSVKGRFTISRDTAKNTVYLQMNSLKPEDTAVYYCAARRLSQYYRYAYKYDYWGQVTQVTVSS | high polyreactivity |
| QVQLVESGGGLVQAGGSLRLSCDDSGSIFWWYTMGWYRQAPGKERELVAAITWNADGTYYADSVKGRFTISRDNAKNTVYLPINSLKPEDTAVYYCAADQYYLDWGGGYDYWGQGTQLTVSS | low polyreactivity |
| QVQLVESGGGLVQAGGSLRLSCDDSGTFFMGWNIPAPRKERELVAGISISDGSTYYADSVKGRFTISRDNAKNSVYLQMNSLKPEDTAVYYCAADSHYLYDYWGQGTQVTVSS | low polyreactivity |
| QVQLVESGGGLVQAGGSLRLSCGASGFFFEPNSMGWYRQATGKERELVAAISSGGSTYADSVKGRFTISRDNAKNPVYLQMNSLKPEDTAVYYCAARPNQSYYGLYYYWGQGTQVTVSS | low polyreactivity |
| QVQLVESGGGLVQAGGSLRLSCGASGFIFGSYAMGWYRQAPGKERELVAAISWSGGGTYYADSVKGRFTISRDNAKNTVYLQMNRLNPEDTAVYYCGALTRYKTASGYDYWGQGTQVTVSS | high polyreactivity |
| QVQLVESGGGLVQAGGSLRLSCGASGGIFYLYAMGWSRQAPGKERELVAAITWSADSTYYADSVKGRFTISRDNAKNTVYLQMNSLKPEDTAVYYCNADVAWQYGKGWSWDIDDYWRQGTQVTVSS | low polyreactivity |
| QVQLVESGGGLVQAGGSLRLSCGASGRIISKYAMGWYRQAPGKERELVAAITSRGGNTYYAVSVKGRFTISRDNAKNTVYFQMYSLNPEDTAVYSCNTSPQSRYVFGRVDSWGQGTQVTVSS | high polyreactivity |
| QVQLVESGGGLVQAGGSLRLSCGASGRTFFWYDMGWYRQAPGKERELVAAISSSTRTKYADSVKGRFTISRDNAKNTVYLQMNSLKPEDSAVSYCAATSDYYHYWYYSSVRRFDYWGQGTQVTVSS | high polyreactivity |
| QVQLVESGGGLVQAGGSLRLSCGASGRTFGRYAMGWYRQAPGKERELVDAITWSGGSTYYADSVKGRFTISRDNAKNTVYLQMNSLKPEDTAVYYCAASGYPIYHDDYWGQGTQVTVSS | low polyreactivity |
| QVQLVESGGGLVQAGGSLRLSCGASGRTFISNAMGWYRQAPGKERELVATINSGGSTNYADSVKGRFTISRDNAKNTVYLQMNSLKPEDTAVYYCARRVRYKHYDYWGQGTQVTVSS | high polyreactivity |
| QVQLVESGGGLVQAGGSLRLSCGASGSIFWVYAMGWYRQAPGKERELVAAISNSGSTNYADSVKGRFTISRDNAKNTVYLQMNSLKPADTAVYYCAKDSLVDHVGGYDYWGQGTQVTVSS | low polyreactivity |
| QVQLVESGGGLVQAGGSLRLSCGGSGSTFYVNAMGWYRQAPGKEREFVAAITWNSGSTYYADSVKGRFTISRDNAKNTVYLQMHSLKPEDTAVYYCAAVLSVRVYGYDYWGQGTQVTVSS | low polyreactivity |
| QVQLVESGGGLVQAGGSLRLSCPASGFIYWSYAMGWYRQAPGKERELVADIDSDASTDYADSVKGRFTITRDNAKNTVYLQMNSLKPEDTAVYYCAALASIQQYPGNFYYWGQGTQVTVSS | high polyreactivity |
| QVQLVESGGGLVQAGGSLRLSCPASGFNFSHNAMGWYRQAPGKERELVAAITWSGAITSYADSVKGRFTISRDNAKNTVYLQMNILKPEDTAVYYCAKLWSWDLSRYGPRVDYWGQGTQVTVSS | low polyreactivity |
| QVQLVESGGGLVQAGGSLRLSCPASGFTFRRYAMGWSRQQPGKESELDAAITRNGGSTYYADSVKGRFTISRDNAKNTVYLLINRLKPEDTAVYYCNAVLYTPVYDCFDSWGQGTQVTVSS | high polyreactivity |
| QVQLVESGGGLVQAGGSLRLSCPASGIIFYGYTMGWYRQEPGKERELVAAISRSGGRTYYADSVKGRFTISRDNAKYTVYLQMNSLKPEDTAVYYCAATGSYSDRVEDEFWGQGTQVTVST | high polyreactivity |

| Sequence | polyreactivity (PSR sort gate) |
| --- | --- |
| QVQLVESGGGLVQAGGSLRLSCPASGITFHGYAMGWYTQEPGKERELVAAITRGGSTYYADSVKGRFTISRDNAKNTVYLQMNSLKPEDTAVYYCAARRVGYSTNYYHYNYWGQGTQVSVSS | high polyreactivity |
| QVQLVESGGGLVQAGGSLRLSCPASGLIFRRNVMGRYRQAPGKERELVAAISRGGSTYNADSVKGRFTISRDNAKNTVFLQMNSLNPEDTAVYYCAAAYTRYVVRGDFWGQGTQVTVSS | high polyreactivity |
| QVQLVESGGGLVQAGGSLRLSCPASGRIFKSYAMGWYRHAPGKERELVAAINWSGGSKYYADSVKGRFTISRDNAKNTVYLQMNSLKPEDTAVYYCAAYFYGRWPYGTGYYYWGQGTQVTVSS | high polyreactivity |
| QVQLVESGGGLVQAGGSLRLSCPASGRIFYIYTMGWYRQAPGKERELVASITYNGGSTYYADSVKGRFTISRDNAKNTVYLQMNSLKPEDTAVYYCNANSRSPTYRYRSWPYNYWGQGTQVTVSS | high polyreactivity |
| QVQLVESGGGLVQAGGSLRLSCPASGRIIGGNAMGWYRQAPGKEREFVAAIRASGGSTHYADSVKGRFTISRDNAKNTVYLQMNSLKPEDTAVYDCNALSRNTHLYDYWGQGTQVTVSS | high polyreactivity |
| QVQLVESGGGLVQAGGSLRLSCPASGRIVANAMGWYIQAPGKERELVAAISSVGSTNYADSVKGRFTISRDNAKNTVYLQMNSLKPEDTAVYYCAARGYRWYIAVDFWGQGTQVTVSS | low polyreactivity |
| QVQLVESGGGLVQAGGSLRLSCPASGRIYGYYVMGWYRQAPGKERELVASITSGGSTYYADSVKRRFTISRDNAKYTVYFQMNSLKPEDTAVYDCAARRAWSWKIYDYWGQGTQVTVSS | high polyreactivity |
| QVQLVESGGGLVQAGGSLRLSCPASGRTFDYNAMGWYRQAPGKERELVAAITSSGGSTYYADSVKGRFTISRDNAKNTVYLQMNSLKPEDSAVYYCATDGQSPYYIYYWGQGTQVTVSS | low polyreactivity |
| QVQLVESGGGLVQAGGSLRLSCPASGRTFSSYAMGWYRPAPGKERELVAAISRRGGSTYYADSVKGRFTISRDNAKNTVYLKMNSLKPEDTAVYYCAADVYKQYGYYYWGQGSQVTVSS | high polyreactivity |
| QVQLVESGGGLVQAGGSLRLSCPASGRTMGGNAMGWYRQAPGKEREFVARISTRGVRKYYADSVKGRFTISRDNAKNTVYLQMNSLKPEDTAVYYCAKHVSYGHIGAYPDRDSWGQGTQVTVSS | low polyreactivity |
| QVQLVESGGGLVQAGGSLRLSCPASGSIFDFYAMGWYRQAPGKERELVAAIDDIDDSTYYADSVKGRFTISRDNAKNTVYLQMNSLKPEDTAVYDCAAELRPGYRSSYGLIYDYWGQGTQVTVSS | low polyreactivity |
| QVQLVESGGGLVQAGGSLRLSCPASGSIFRSYAMGWYRPAPGKERELVASISRRGGSSYYADSVKGRFTISRDNAKNTVYLQMNSLKPEDTAVYYCAAVRYNSRGSTTPSEMYYWGQGTQVTVSS | low polyreactivity |
| QVQLVESGGGLVQAGGSLRLSCPASGSIFSLNAMGWSRQAPGKERELVAASGGGSTYYADSVKGRFTISRDNAKNTVYLQMNSLKPEDTAVYYCAARVLTDELDYWGQGTQVTVSS | low polyreactivity |
| QVQLVESGGGLVQAGGSLRLSCPASGSIFYSYAMGWYRQAPGKERELVAAISWDASTYYADSVKGRFTISRDNAKNTVYLQMNSLKPEYTAVYYCNAVYRVWYAEWSTVGSPHDYWGQGTQVTVSS | low polyreactivity |
| QVQLVESGGGLVQAGGSLRLSCPASGSTFRYYAMAWYRQAPGKERELVAGISSSGGSTYYADSVKGRFTISRDNAKNTVYLQMNSLKPEDTAVYYCNAARGTSRSLAVFADYDYWGQGTQVTVSS | high polyreactivity |
| QVQLVESGGGLVQAGGSLRLSCPASGSTYLIYAMGWYRQAPGKERELVARITSTGSTYYADSVKRRFTISRDNAMNTVYLHMNSLKPEDTAVYYCNAAGYQYYWHYYWGQGTQVTVSS | low polyreactivity |
| QVQLVESGGGLVQAGGSLRLSCPATGSTFGSYAMAWYRPAPGKERELVADISSRGASTYYADSVKGRFTISRDNAKNTVYLQMNSLKPEDTAVYYCARDVYIWYGYGYFPEYEYWGQGTQVTVSS | low polyreactivity |
| QVQLVESGGGLVQAGGSLRLSCSASGFTFEEYAMGWYRQAPGKERELVAAIDYTVGSTYYADSVKGRFTISRDNAKNTVYLQINSLKPEDTAVYYCNVDLSYSFNSAYGYWGQGTQVSVSS | low polyreactivity |
| QVQLVESGGGLVQAGGSLRLSCSASGFTIYYYTMGWYRQAPGKERELVAAITRSGGRTYYADSVKGRFTISRDNSKNTVYLQMISLKPEDPAVYYCAASTYNNFWYLGYGYWGQGTQVTVSS | high polyreactivity |
| QVQLVESGGGLVQAGGSLRLSCSASGGTFRYYTMVWYRKAPGKERELVAAITRGGRTYYADSVKGRFTISRDNAKNTVYLQMNSLKPEDTAVYYCAAVRPRSPVSYENDYWGQGTQVTVSS | high polyreactivity |
| QVQLVESGGGLVQAGGSLRLSCSASGLIFRYYAMGWYRQAPGKEREFVAAISGRGASTYYADSVKGRFTISRDNSKNTVYLQMNSLKPEDTAVYYCATYFPSAVVAFHMEYWGQGTQVTVSS | low polyreactivity |
